Source: publication PMC11580933 (bioRxiv, 2024)
One block for each binder: values may come before it. Where no end group is shown, it is not given here.

What was measured:
KTN1(991–1357) [1] = target: T1, KTN1(991–1357) (human, UniProt Q86UP2 991-1357); experiment: SEC
T1 sequence (looked up): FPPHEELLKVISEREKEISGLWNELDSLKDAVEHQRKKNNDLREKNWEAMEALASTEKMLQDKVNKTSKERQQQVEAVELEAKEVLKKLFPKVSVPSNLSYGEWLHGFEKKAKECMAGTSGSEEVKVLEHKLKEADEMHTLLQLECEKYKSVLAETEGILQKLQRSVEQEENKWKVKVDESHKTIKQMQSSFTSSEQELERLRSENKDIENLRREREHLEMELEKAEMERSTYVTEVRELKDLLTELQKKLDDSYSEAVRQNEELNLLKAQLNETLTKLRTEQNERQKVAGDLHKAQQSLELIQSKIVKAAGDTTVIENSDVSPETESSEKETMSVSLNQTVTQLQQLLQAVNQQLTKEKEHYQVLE

CDR2(1–146) = CDR2(1–146) (human, UniProt Q01850 1-146); experiment: SEC
Chain of CDR2(1–146) (Q01850 1-146): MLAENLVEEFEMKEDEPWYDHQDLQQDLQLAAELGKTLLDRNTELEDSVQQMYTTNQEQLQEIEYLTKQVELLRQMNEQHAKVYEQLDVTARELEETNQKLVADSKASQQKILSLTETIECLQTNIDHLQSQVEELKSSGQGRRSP

KTN1(991–1357) [2] = target: T1, KTN1(991–1357); experiment: pull-down

Binder: EPVSSPTTPPEYKALFKEIFSCIKKTKQEIDEQRTKYRSLSSHS (domain or fragment, human, UniProt Q01850 411-454, looked up) [GST::CDR2(411–454)]
binding result (KTN1(991–1357) [1]): binds

B1: GST::DLIC1(388–523) (domain or fragment, human, UniProt Q9Y6G9 388-523, looked up)
chain: PTAAGRPVDASPRVPGGSPRTPNRSVSSNVASVSPIPAGSKKIDPNMKAGATSEGVLANFFNSLLSKKTGSPGGPGVSGGSPAGGAGGGSSGLPPSTKKSGQKPVLDVHAELDRITRKPVTVSPTTPTSPTEGEAS
binding result (CDR2(1–146)): binds

Now from value to binder:

binding result (KTN1(991–1357) [1]): binds
Binder: {GST}-NGPVAGASRQENGASVILRDIARARENIQKSLAGSSG (domain or fragment, human, UniProt P29692 30-66, looked up) [GST::eEF1Bβ(30–66)]

binding result (KTN1(991–1357) [2]): binds
B2: GST::KIF5C(807–956) (domain or fragment)
chain: not shown
